Results from patent US20260265412A1.

Assays:
[1] = molecular target: MASP3 in Factor D depleted human plasma (human) (UniProt P48740); experiment: cell-based or functional assay
human MASP3-His (human) = human MASP3-His (human) (UniProt P48740); experiment: cell-based or functional assay
human MASP3-His (human), sequence (P48740 other isoform, or with tags, fused parts or gaps): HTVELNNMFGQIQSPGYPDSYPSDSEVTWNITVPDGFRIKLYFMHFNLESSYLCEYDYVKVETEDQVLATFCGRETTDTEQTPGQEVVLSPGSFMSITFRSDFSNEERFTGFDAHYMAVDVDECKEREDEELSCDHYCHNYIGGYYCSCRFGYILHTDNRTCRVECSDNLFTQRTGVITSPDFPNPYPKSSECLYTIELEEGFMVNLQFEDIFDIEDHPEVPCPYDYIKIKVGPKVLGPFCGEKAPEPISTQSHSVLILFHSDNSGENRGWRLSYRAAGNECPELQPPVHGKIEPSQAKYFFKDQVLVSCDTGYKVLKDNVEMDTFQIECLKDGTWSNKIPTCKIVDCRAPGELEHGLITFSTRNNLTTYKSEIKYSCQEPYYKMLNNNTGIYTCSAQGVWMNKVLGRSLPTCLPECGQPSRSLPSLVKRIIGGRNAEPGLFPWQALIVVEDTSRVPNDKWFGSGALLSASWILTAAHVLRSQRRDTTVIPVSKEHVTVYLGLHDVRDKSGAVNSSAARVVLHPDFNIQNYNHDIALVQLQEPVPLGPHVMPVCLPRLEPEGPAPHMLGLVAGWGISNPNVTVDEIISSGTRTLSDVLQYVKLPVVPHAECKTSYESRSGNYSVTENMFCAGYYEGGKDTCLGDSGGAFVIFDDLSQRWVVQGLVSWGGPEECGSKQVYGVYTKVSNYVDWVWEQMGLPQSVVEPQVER

MASP3 in Factor D depleted human plasma (human), sequence (P48740 other isoform, or with tags, fused parts or gaps): as above

IC50 of inhibition of MASP3 enzymatic activity (cleavage of fluorescent tripeptide Boc-Val-Pro-Arg-AMC) (human MASP3-His (human)): 0.2 µM
Substance: OMS906 (antibody)
Inhibit Hemolysis IC50 (alternative pathway, rabbit or guinea pig red blood cells) [1]: 0.013 µM
Inhibit hemolysis IC50 (alternative pathway) [1]: 0.0171 µM
